This is an account of results in IntAct's records for PubMed 30058071.

The chains are these.
B1: SH3 and multiple ankyrin repeat domains protein 3 (Homo sapiens), Q9BYB0-1 (parent)
chain: MQLSRAAAAAAAAPAEPPEPLSPAPAPAPAPPGPLPRSAADGAPAGGKGGPGRRAESPGAPFPGASGPGPGPGAGMDGPGASAVVVRVGIPDLQQTKCLRLDPAAPVWAAKQRVLCALNHSLQDALNYGLFQPPSRGRAGKFLDEERLLQEYPPNLDTPLPYLEFRYKRRVYAQNLIDDKQFAKLHTKANLKKFMDYVQLHSTDKVARLLDKGLDPNFHDPDSGECPLSLAAQLDNATDLLKVLKNGGAHLDFRTRDGLTAVHCATRQRNAAALTTLLDLGASPDYKDSRGLTPLYHSALGGGDALCCELLLHDHAQLGITDENGWQEIHQACRFGHVQHLEHLLFYGADMGAQNASGNTALHICALYNQESCARVLLFRGANRDVRNYNSQTAFQVAIIAGNFELAEVIKTHKDSDVVPFRETPSYAKRRRLAGPSGLASPRPLQRSASDINLKGEAQPAASPGPSLRSLPHQLLLQRLQEEKDRDRDADQESNISGPLAGRAGQSKISPSGPGGPGPAPGPGPAPPAPPAPPPRGPKRKLYSAVPGRKFIAVKAHSPQGEGEIPLHRGEAVKVLSIGEGGFWEGTVKGRTGWFPADCVEEVQMRQHDTRPETREDRTKRLFRHYTVGSYDSLTSHSDYVIDDKVAVLQKRDHEGFGFVLRGAKAETPIEEFTPTPAFPALQYLESVDVEGVAWRAGLRTGDFLIEVNGVNVVKVGHKQVVALIRQGGNRLVMKVVSVTRKPEEDGARRRAPPPPKRAPSTTLTLRSKSMTAELEELASIRRRKGEKLDEMLAAAAEPTLRPDIADADSRAATVKQRPTSRRITPAEISSLFERQGLPGPEKLPGSLRKGIPRTKSVGEDEKLASLLEGRFPRSTSMQDPVREGRGIPPPPQTAPPPPPAPYYFDSGPPPAFSPPPPPGRAYDTVRSSFKPGLEARLGAGAAGLYEPGAALGPLPYPERQKRARSMIILQDSAPESGDAPRPPPAATPPERPKRRPRPPGPDSPYANLGAFSASLFAPSKPQRRKSPLVKQLQVEDAQERAALAVGSPGPGGGSFAREPSPTHRGPRPGGLDYGAGDGPGLAFGGPGPAKDRRLEERRRSTVFLSVGAIEGSAPGADLPSLQPSRSIDERLLGTGPTAGRDLLLPSPVSALKPLVSGPSLGPSGSTFIHPLTGKPLDPSSPLALALAARERALASQAPSRSPTPVHSPDADRPGPLFVDVQARDPERGSLASPAFSPRSPAWIPVPARREAEKVPREERKSPEDKKSMILSVLDTSLQRPAGLIVVHATSNGQEPSRLGGAEEERPGTPELAPAPMQSAAVAEPLPSPRAQPPGGTPADAGPGQGSSEEEPELVFAVNLPPAQLSSSDEETREELARIGLVPPPEEFANGVLLATPLAGPGPSPTTVPSPASGKPSSEPPPAPESAADSGVEEADTRSSSDPHLETTSTISTVSSMSTLSSESGELTDTHTSFADGHTFLLEKPPVPPKPKLKSPLGKGPVTFRDPLLKQSSDSELMAQQHHAASAGLASAAGPARPRYLFQRRSKLWGDPVESRGLPGPEDDKPTVISELSSRLQQLNKDTRSLGEEPVGGLGSLLDPAKKSPIAAARLFSSLGELSSISAQRSPGGPGGGASYSVRPSGRYPVARRAPSPVKPASLERVEGLGAGAGGAGRPFGLTPPTILKSSSLSIPHEPKEVRFVVRSVSARSRSPSPSPLPSPASGPGPGAPGPRRPFQQKPLQLWSKFDVGDWLESIHLGEHRDRFEDHEIEGAHLPALTKDDFVELGVTRVGHRMNIERALRQLDGS
B2: SH3 and multiple ankyrin repeat domains protein 2 (Rattus norvegicus (Rat)), Q9QX74-7 (parent)
chain: MPRSPTSSEDEMAQSFSDYSVGSESDSSKEETIYDTIRATTEKPGGVKMEDLQGNTLVIRVVIQDLQQTKCIRFNPDATVWVAKQRILCTLNQGLKDVLNYGLFQPASNGRDGKFLDEERLLREYPQPMGQGVPSLEFRYKKRVYKQSNLDEKQLARLHTKTNLKKFMDHTQHRSVEKLVKLLDRGLDPNFHDLETGETPLTLAAQLDGSMEVIKALRNGGAHLDFRSRDGMTALHKAARMRNQVALKTLLELGASPDYKDSYGLTPLYHTAIVGGDPYCCELLLHEHASVCCKDENGWHEIHQACRYGHVQHLEHLLFYGADMSAQNASGNTALHICALYNQDSCARVLLFRGGDKELKNYNSQTPFQVAIIAGNFELAEYIKNHKETDIVPFREAPAYSNRRRRPPNTLAAPRVLLRSNSDNNLNAGAPEWAVCSAATSHRSLSPQLLQQTPSKPDGATKSLGSYAPGPRSRSPSLNRLGGAGEDGKRPQPPHWHVGSPFTPGANKDSLSTFEYPGPRRKLYSAVPGRLFVAIKPYQPQVDGEIPLHRGDRVKVLSIGEGGFWEGSARGHIGWFPAECVEEVQCKPRDSQAETRADRSKKLFRHYTVGSYDSFDAASDCIIEDKTVVLQKKDNEGFGFVLRGAKADTPIEEFTPTPAFPALQYLESVDEGGVAWQAGLRTGDFLIEVNNENVVKVGHRQVVNMIRQGGNHLVLKVVTVTRNLDPDDTARKKAPPPPKRAPTTALTLRSKSMTAELEELDKPEEIVPASKPSRTAENVAIESRVATIKQRPTSRCFPAASDVNSVYERQGIAVMTPTVPGSPKGPFLGLPRGTMRRQKSIDSRIFLSGITEEERQFLAPPMLKFTRSLSMPDTSEDIPPPPQSVPPSPPPPSPTTYNCPRSPTPRVYGTIKPAFNQNPVAKVPPATRSDTVATMMREKGMFYRRELDRFSLDSEDVYSRSPAPQAAFRTKRGQMPENPYSEVGKIASKAVYVPAKPARRKGMLVKQSNVEDSPEKTCSIPIPTIIVKEPSTSSSGKSSQGSSMEIDPQATEPGQLRPDDSLTVSSPFAAAIAGAVRDREKRLEARRNSPAFLSTDLGDEDVGLGPPAPRMQPSKFPEEGGFGDEDETEQPLLPTPGAAPRELENHFLGGGEAGAQGEAGGPLSSTSKAKGPESGPAAALKSSSPASPENYVHPLTGRLLDPSSPLALALSARDRAMQESQQGHKGEAPKADLNKPLYIDTKMRPSVESGFPPVTRQNTRGPLRRQETENKYETDLSKDRRADDKKNMLINIVDTAQQKSAGLLMVHTVDIPVAGPPLEEEEDREDGDTKPDHSPSTVPEGVPKTEGALQISAAPEPAAAPGRTIVAAGSVEEAVILPFRIPPPPLASVDLDEDFLFTEPLPPPLEFANSFDIPDDRAASVPALADLVKQKKSDTPQPPSLNSSQPANSTDSKKPAGISNCLPSSFLPPPESFDAVTDSGIEEVDSRSSSDHHLETTSTISTVSSISTLSSEGGESMDTCTVYADGQAFVVDKPPVPPKPKMKPIVHKSNALYQDTLPEEDTDGFVIPPPAPPPPPGSAQAGVAKVIQPRTSKLWGDVTEVKSPILSGPKANVISELNSILQQMNRGKSVKPGEGLELPVGAKSANLAPRSPEVMSTVSGTRSTTVTFTVRPGTSQPITLQSRPPDYESRTSGPRRAPSPVVSPTELSKEILPTPPSAAAASPSPTLSDVFSLPSQSPAGDLFGLNPAGRSRSPSPSILQQPISNKPFTTKPVHLWTKPDVADWLESLNLGEHKETFMDNEIDGSHLPNLQKEDLIDLGVTRVGHRMNIERALKQLLDR

Variants of B1 are the subject of the first experiment. The following applies: with cac1d_human CACNA1D.
Regarding K555Y, the “effect of a mutation on the interaction” value is recorded as “with no effect”.

In the next experiment the parent is B2. The following applies: with cac1d_rat Cacna1d.
With S558D, the “effect of a mutation on the interaction” value was “with no effect”.

For the variant S558N, the “effect of a mutation on the interaction” value was “decreasing interaction strength”.
